Data published in PMC3351151 (Nucleic Acids Research, 2012).

Molecular target: the molecule itself
Assay: crystal structure

B1: His-HypR (His-tagged HypR, wild type), oxidized by diamide or NaOCl (natural protein, B. subtilis, UniProt P37486 1-125, looked up)
chain: MSEKKNIYPNKEGCPVEFTLDVIGGKWKGILFYHMIDGKKRFNEFRRICPSITQRMLTLQLRELEADGIVHREVYHQVPPKVEYSLTEFGRTLEPIVLQMKEWGESNRDVLESYRSNGLVKDQQK
modifications: Cys14-Cys49' intersubunit disulphide after oxidation with diamide or NaOCl
stoichiometry N: 2
